Data reported in patent publication US9260754B2, “Connexin mutation detection for lymphatic variation and disease” (University of Pittsburgh—Of the Commonwealth System of …, priority 2010, dated 2016).
Positions count from the first letter of the chain named. Names and notes keep the numbering of the source. “Also recorded” adds a separate entry of the source.

Columns and labels:
HeLa cells [1] = assay: Cx47 gap junction plaque formation by immunofluorescent confocal microscopy in transfected HeLa cells; type: cell-based, human; settings: near confluent transfected HeLa cells
Description: Human neonatal foreskin was collected anonymously as discarded tissue according to an IRB protocol. Samples were collected immediately after harvest in DMEM, then fixed in 2% paraformaldehyde for 2 hrs, then stored in 30% sucrose in 1×PBS overnight for cryosectioning, and sectioned in 6 μm slices at −30° C. Transfected (stable and transient) and untransfected HeLa cells were grown to near confluence in coverslip bottom dishes. All cells were rinsed with PBS and fixed with 2% paraformaldehyde. Subsequently, tissue and HeLa cells were processed similarly: following permeabilization with 0.1% Triton X, cells were blocked with 2% BSA. A human Cx47 antibody (ab) was obtained from the S. Scherer laboratory: polyclonal rabbit against amino acids 344-399 in the cytoplasmic C-terminal tail; we used human CNS tissue and positive oligodendrocyte staining as a positive control and primary antibody delete and rabbit IgG as negative controls (data not shown). Cx47 ab was diluted in 0.5% BSA in a 1:200 ratio, applied to cells and incubated at RT for one hour. Mouse monoclonal Proxl (Chemicon) was used as a lymphatic marker for the foreskin samples. Cells were incubated with the secondary abs (Donkey Anti-Rabbit Cy5 and Donkey Anti-Mouse Cy3; Invitrogen) for one hour at RT and washed; Draq5 was used as a nuclear marker. HeLa images were acquired with an inverted Olympus Fluoview 1000 Confocal Microscope 100× oil, 1.4 NA objective. Foreskin images were acquired on a Zeiss Meta LSM 510 inverted confocal microscope with 40× oil, 1.3 N.A. objective. LECs (primary human microvascular adult dermal lymphatics; Lonza) were grown in fibronectin coated coverslip bottom MatTeks dishes in EGM™-2 MV—Microvascular Endothelial Cell Medium-2 (Lonza Inc.) to approximately 80% confluence, and prepared similarly but a commercially available (AbCam) Cx47 ab, polyclonal rabbit against amino acids 41-70 in the human sequence was used along with Drag 5 nuclear marker and phalloidin to mark f-actin.
Immunofluorescence microscopy determines the presence or absence of Cx47 gap junction plaques when the constructs are transiently expressed in HeLa cells. Cx plaques reflect a physiologic accumulation of Cx channels in the cell membrane between cells (tens to thousands of channels); thus plaques are indicative of normal trafficking and gap junction formation at the cell membrane.
Immunofluorescence microscopy determines the presence or absence of Cx47 gap junction plaques when the constructs are transiently expressed in HeLa cells. A human Cx47 antibody was obtained: polyclonal rabbit against amino acids 344-399 in the cytoplasmic C-terminal tail (Orthmann-Murphy J L, et al. Mol Cell Neurosci 2007; 34:629-41); we used human CNS tissue and positive oligodendrocyte staining as a positive control and primary antibody delete as a negative control (data not shown). Cultured HeLa cells were routinely fixed and stained with the primary antibodies against Cx47, along with a nuclear marker, and transfected cells were identified by their EGFP signal. Plaques were imaged using an Olympus Fluoview 1000 confocal microscope, 100× oil objective.

HeLa cell pairs = assay: Dual whole cell patch clamp recording of coupling current in transfected HeLa cell pairs; type: cell-based, human; settings: for electrical coupling: Table 6 (Example 4); for electrical coupling / elect coupling: HeLa cell pairs, 100 mV step, mean ± SEM; for electrical coupling / functional channels in HeLa cell pairs (in words): transfected HeLa cell pairs, voltage step protocol −100 to +100 mV; for elect coupling: Table 3 (Example 2)
Description: Coupling currents were recorded using simultaneous double whole-cell patch clamp recordings from isolated pairs of cells that were in contact with one another (determined visually) as previously described. Briefly, the pipette solution consisted of (mM): 130 CsCl, 10 EGTA, 10 HEPES, 3 Mg-ATP, 2 Na-ATP, 0.5 CaCl2, pH 7.3. The culture was bathed in a solution consisting of (mM): 140 NaCl, 5 HEPES, 5 glucose, 4 KCl, 2 CsCl, 2 CaCl2, 2 pyruvate, 1 BaCl2, pH 7.3. Transfected HeLas undergo electrophysiologic analysis in a blinded manner. Pairs of cells were chosen for study only if both expressed the GFP marker indicative of successful transfections; both stable and transient transfectants were analyzed. Patch pipettes were fabricated from borosilicate glass, and coupling currents were amplified by Axopatch 200A amplifiers, filtered at 1 KHz, and digitized at 5 KHz for subsequent analysis using pClamp software (Axon Instruments/Molecular Devices; Sunnyvale, Calif.). All experiments were carried out at room temperature (22° C.). Coupling current was quantified by measuring the peak current recorded in the pair when the neighboring cell received a 100 mV step membrane potential change (in both positive and negative directions). Step changes in membrane potential were delivered to each cell in the pair in sequence and the average current recorded in the neighboring cell was determined and divided by 100 to generate coupling current expressed in pA/mV. Means±SEM were calculated and statistical significance using a one-way analysis of variance and Tukey's post-hoc test, p<0.05.
Coupling current is quantified by measuring the peak current recorded in the pair when the neighboring cell receives a 100 mV step membrane potential change (in both positive and negative directions). Step changes in membrane potential are delivered to each cell in the pair in sequence and the average current recorded in the neighboring cell determined and divided by 100 to generate coupling current expressed in pA/mV (FIG. 6C). Replicate measurements (n=3-6) are made on at least two different days. […] The untransfected HeLa cell pairs also show minimal channel function, as predicted.
Electrophysiologic characteristics of GJIC were measured between HeLa cell pairs transfected with the mutant constructs (as indicated by EGFP expression) by dual whole cell patch clamp recording. All experiments were carried out in a blinded manner. Coupling current is quantified by measuring the peak current recorded in the pair when the neighboring cell receives a 100 mV step membrane potential change (in both positive and negative directions). Step changes in membrane potential are delivered to each cell in the pair in sequence and the average current recorded in the neighboring cell determined and divided by 100 to generate coupling current expressed in pA/mV. Untransfected HeLa cells and cells transfected with empty vector (i.e., no hCx47) were used as additional controls.

HeLa cells [2] = assay: Wound assay (proliferation/migration) in confluent transfected HeLa cells; type: cell-based, human; settings: fraction of original wound in HeLa cell monolayer after 24 hrs; mean ± SEM
Description: The wound assay, a measure of proliferation/migration, was performed using differential interference contrast time lapse of over 24 hrs using confluent transfected HeLa cells. Analysis was done using TScratch (Geback T, et al. TScratch: a novel and simple software tool for automated analysis of monolayer wound healing assays. Biotechniques 2009; 46:265-74), mean±SEM of at least 10 positions along wound; the scrape width was normalized to the first image for each position. In all cases a two tailed student's T test was applied with p<0.05 considered significant.

HeLa cells [3] = assay: Calcein AM scrape loading and dye transfer in stably transfected HeLa cells; type: cell-based, human; settings: for dye transfer: ratio, rate normalized to untransfected HeLa cells, Calcein AM scrape loading, 10 min, stably transfected HeLa, mean ± SEM
Description: A confluent monolayer of HeLa cells (untransfected and stably transfected, as described above) was grown in DMEM with 10% FBS in coverslip bottom plates (MatTek) and placed in a temperature controlled microincubator (Zeiss). A 10×, 0.4 NA objective was used to collect DIC and GFP images every 5 seconds for 10 minutes without changing media. A pipette loaded with 1 μl Calcein AM (Invitrogen), a gap junction permissive dye with molecular weight 662, −4 charge when intracellular and fluorescent, was used to create a scrape across the monolayer. At least 5 replicate dishes were analyzed on the same day, and WT hCx47 expressing HeLas were grown and assayed as a concurrent control; assays were performed on at least 2 different batches of HeLa cells on different days. Quantitation of the rate of spread was calculated using MetaMorph, by obtaining integrated intensity at the 10th time point, within the first minute of imaging, and then at the endpoint at 10 min, and subtracting the initial intensity from that at the endpoint. Results are reported as mean and SEM, and tested for significance (p<0.05) using an unpaired Student's t-test.
In these mutants, Cx47 appears to concentrate in the ER. Unlike electrophysiologic measurements, dye transfer assays are used to assess GJIC of relatively large molecules. We also found significant differences in GJIC in HeLa cells overexpressing Cx47 lymphedema associated mutations by assessing rates of dye transfer in a conventional scrape assay using stably transfected HeLa cells normalized to rates in untransfected HeLa cells (FIG. 7D; Table 3). […] It is not surprising that the mutants show some differences in GJIC between the electrophysiologic and dye transfer assays given that they are designed to measure different kinds of transport and that Cx channel permeability is now believed to be governed by factors including molecular shape, charge and size, in addition to channel conformation and composition.

[4] = system: Adult human dermal lymphatic microvascular endothelial cells; assay: Lucifer yellow microinjection dye spread in lymphatic endothelial cells expressing mutant constructs; type: cell-based
Description: Adult human dermal lymphatic microvascular endothelial cells were cultured in EGM™-2 MV (both from Lonza). Cells were electroporated with 2 μg cDNA of the EGFP tagged mutant constructs and then selected with G418 as described above. Cells were microinjected using a combination (1:4 ratio) of 70 kd Texas Red dextran (Invitrogen) to mark injected cell for reference and Lucifer yellow, a known gap junction permeable dye (m.w. 443, −2 charge), to assess change in extent of spread (Abbaci M, et al. Advantages and limitations of commonly used methods to assay the molecular permeability of gap junctional intercellular communication. Biotechniques 2008; 45:33-52, 6-62). All cells were injected using constant conditions and cells were scored for dye spread in tiers from reference cell, using constant exposure time and thresholding, and were imaged using a Nikon TE2000 with temperature controlled motorized stage and Qlmaging Retiga CCD camera. Images were obtained using differential interference contrast (DIC) and standard filters for EGFP (identify expression of mutation), DAPI (for Lucifer yellow) and dsRed (for dextran) preinjection, immediately post-injection and 2 min after injection. Results were calculated as mean SEM and statistical significance was determined in comparison to WT-hCx47-EGFP expressing cells using a Mann-Whitney Test.

B1: G183C: Cx47 missense mutant G183C (547G>T), intracellular loop, construct expressed in HeLa cells (protein, listed as Homo sapiens)
chain: MSWSFLTRLLEEIHNHSTFVGKVWLTVLVVFRIVLTAVGGEAIYSDEQAKFTCNTRQPGCDNVCYDAFAPLSHVRFWVFQIVVISTPSVMYLGYAVHRLARASEQERRRALRRRPGPRRAPRAHLPPPHAGWPEPADLGEEEPMLGLGEEEEEEETGAAEGAGEEAEEAGAEEACTKAVGADCKAAGTPGPTGQHDGRRRIQREGLMRVYVAQLVARAAFEVAFLVGQYLLYGFEVRPFFPCSRQPCPHVVDCFVSRPTEKTVFLLVMYVVSCLCLLLNLCEMAHLGLGSAQDAVRGRRGPPASAPAPAPRPPPCAFPAAAAGLACPPDYSLVVRAAERARAHDQNLANLALQALRDGAAAGDRDRDSSPCVGLPAASRGPPRAGAPASRTGSATSAGTVGEQGRPGTHERPGAKPRAGSEKGSASSRDGKTTVWI
- Cx47 plaque formation (in words) (HeLa cells [1]): Cx47 intercellular plaques
- electrical coupling (HeLa cell pairs): 68.6 pA/mV
- electrical coupling / functional channels in HeLa cell pairs (in words) (HeLa cell pairs): increased electrical coupling; also recorded: increased peak coupling currents
- wound assay (HeLa cells [2]): 0.68

B2: S45L: Cx47 missense mutant S45L (134C>T), extracellular loop 1, construct expressed in HeLa cells (protein, listed as Homo sapiens)
chain: B1 chain with S45L, C183G
- Cx47 plaque formation (in words) (HeLa cells [1]): absence; also recorded: fail to demonstrate Cx 47 plaques
- dye transfer (HeLa cells [3]): 1.11
- elect coupling (HeLa cell pairs): 0.1 pA/mV
- electrical coupling / functional channels in HeLa cell pairs (in words) (HeLa cell pairs): absence of coupling; also recorded: do not exhibit functional channels

B3: R257C: Cx47 missense mutant R257C (769C>T), extracellular loop 2, construct expressed in HeLa cells (protein, listed as Homo sapiens)
chain: B1 chain with C183G, R257C
- Cx47 plaque formation (in words) (HeLa cells [1]): absence; also recorded: fail to demonstrate Cx 47 plaques
- dye transfer (HeLa cells [3]): 2.56
- Calcein AM dye transfer compared to WT-hCx47 transfected HeLa cells (in words) (HeLa cells [3]; stably transfected HeLa cells, scrape assay): significantly greater dye transfer
- elect coupling (HeLa cell pairs): 0.0 pA/mV
- electrical coupling / functional channels in HeLa cell pairs (in words) (HeLa cell pairs): absence of coupling; also recorded: do not exhibit functional channels

B4: P313L: Cx47 missense mutant P313L (938C>T), C-terminal, construct expressed in HeLa cells (protein, listed as Homo sapiens)
chain: B1 chain with C183G, P313L
- dye transfer (HeLa cells [3]): 2.10
- elect coupling (HeLa cell pairs): 37.6 pA/mV
- electrical coupling / functional channels in HeLa cell pairs (in words) (HeLa cell pairs): well coupled

B5: H409Y: Cx47 missense mutant H409Y (1225C>T), C terminal, construct expressed in HeLa cells or LECs (protein, listed as Homo sapiens)
chain: B1 chain with C183G, H409Y
- Cx47 plaque formation (in words) (HeLa cells [1]): Cx47 intercellular plaques
- electrical coupling (HeLa cell pairs): 46.4 pA/mV
- electrical coupling / functional channels in HeLa cell pairs (in words) (HeLa cell pairs): well coupled
- wound assay (HeLa cells [2]): 0.73
- LEC spread ([4]; Dye spread to tiers of LECs after 2 min, Lucifer yellow microinjection, mean ± SEM): 0.07 tiers
- dye transfer of Lucifer yellow after microinjection compared to WT-hCx47-EGFP expressing LECs (in words) ([4]; LECs expressing the mutations): dramatically impaired dye transfer
